This note sets out measurements from patent publication US20190345255A1.

Test [1] concerns the target Mouse recombinant MGL2 (macrophage galactose binding lectin 2) (mouse). The test is described as follows: competition ELISA on MGL2-coated plate; 10 µg/mL Tn-BSA against 10 µg/mL biotinylated TF-PS A1 probe 25b (a polysaccharide) as competitor.
Test [2] shares this target. The experiment in a line: competition ELISA on MGL2-coated plate; 10 µg/mL Tn-BSA against 10 µg/mL biotinylated Tn-PS A1 probe 25a (a polysaccharide) as competitor.
The target in test [3] is Tn-BSA (Tn antigen conjugated to bovine serum albumin) (bovine) (UniProt P02769). The experiment in a line: ELISA titration of purified IgM, Tn-BSA coated plates.
Chain of UniProt P02769 (P02769 25-607 limits assumed, form in doubt): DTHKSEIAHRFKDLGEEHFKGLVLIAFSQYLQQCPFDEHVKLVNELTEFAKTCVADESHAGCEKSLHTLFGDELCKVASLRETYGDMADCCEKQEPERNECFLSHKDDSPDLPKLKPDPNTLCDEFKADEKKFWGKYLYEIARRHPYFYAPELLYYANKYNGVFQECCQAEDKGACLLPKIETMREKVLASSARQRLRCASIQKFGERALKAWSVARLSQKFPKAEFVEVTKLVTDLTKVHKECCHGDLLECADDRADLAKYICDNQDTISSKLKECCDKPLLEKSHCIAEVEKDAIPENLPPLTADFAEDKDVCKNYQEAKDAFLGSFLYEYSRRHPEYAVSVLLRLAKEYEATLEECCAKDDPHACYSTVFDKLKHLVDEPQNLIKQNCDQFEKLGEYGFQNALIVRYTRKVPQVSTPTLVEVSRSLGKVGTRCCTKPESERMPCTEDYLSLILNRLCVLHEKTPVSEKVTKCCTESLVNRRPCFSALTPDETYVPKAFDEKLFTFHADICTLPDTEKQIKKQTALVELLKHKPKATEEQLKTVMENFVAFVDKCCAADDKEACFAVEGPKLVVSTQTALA

In the case of “Tn-BSA (Tn antigen conjugated to bovine serum albumin) (from UniProt P02769 25-607)”, the results for the percent inhibition in test [1] and in test [2] were 64% and 44%, respectively.

B1: Kt-IgM-8 (antibody, V domains shown)
VH: QIQLVQSGPELKKPGETVKISCKASGYTFTTYGMSWVKQAPGKGLKWMGWINTYSGVPTYADDFKGRFAFSLETSASTAYLQINNLKNEDTATYFCARHYYGGAYWGQGTLVTVSA
VL: QIVLTQSPAIMSASPGEKVTMTCSASSSVSYMHWYQQKSGTSPKRWIYDTSKLASGVPARFSGSGSGTSYSLTISSMEAEDAATYYCQQWSSNPLTFGAGTKLELK
As to B1, in test [3], the optical density (O.D.) at 0.3 µg/mL antibody is > 0.2 O.D.
